# B1: rhIL11: Recombinant human IL11 (UniProtKB:P20809, Genscript) (protein)
# chain: PGPPPGPPRVSPDPRAELDSTVLLTRSLLADTRQLAAQLRDKFPADGDHNLDSLPTLAMSAGALGALQLPGVLTRLRADLLSYLRHVQWLRRAGGSSLKTLEPELGTLQARLDRLLRRLQLLMSRLALPQPPPDPPAPPLAPPSSAWGGIRAAHAILGGLHLTLDWAVRGLLLLKTRL
# Assays:
# [1] = tested on: clonogenic cells in intestinal crypts; conditions: 100 μg/kg, SC prior to and after cytotoxic exposure; cited from earlier work
# kidney = conditions: 100-1000 μg/kg, IP; 10 minutes prior to or 30-60 minutes following IR; cited from earlier work
# [2] = tested on: primary human hepatocytes; experiment: IL11 stimulation of primary human hepatocytes: ERK, JNK, CASP3, PI staining; format: cell-based
# Description: PI^+ve cells were quantified with the flow cytometer (Fortessa, BD Biosciences) and analyzed with FlowJo version 7 software (TreeStar).
# active Crohn's disease = conditions: 1 mg, weekly for 12 weeks, SC; 51 patients; cited from earlier work
# small intestinal mucosa = conditions: 250 μg/kg; cited from earlier work
# [3] = tested on: activated murine CD4+ve T-cells; conditions: 1-500 ng/ml; cited from earlier work
# mIL11Rα1 = molecular target: T1, mIL11Rα1 (Mus musculus, UniProt Q64385); experiment: Competition ELISA, biotinylated rmIL11 binding to mIL11Rα1; conditions: two-fold dilutions from 5 μg ml^-1
# T1 construct: purchased SinoBiological 50075-M08H
# T1 sequence (Q64385 24-432): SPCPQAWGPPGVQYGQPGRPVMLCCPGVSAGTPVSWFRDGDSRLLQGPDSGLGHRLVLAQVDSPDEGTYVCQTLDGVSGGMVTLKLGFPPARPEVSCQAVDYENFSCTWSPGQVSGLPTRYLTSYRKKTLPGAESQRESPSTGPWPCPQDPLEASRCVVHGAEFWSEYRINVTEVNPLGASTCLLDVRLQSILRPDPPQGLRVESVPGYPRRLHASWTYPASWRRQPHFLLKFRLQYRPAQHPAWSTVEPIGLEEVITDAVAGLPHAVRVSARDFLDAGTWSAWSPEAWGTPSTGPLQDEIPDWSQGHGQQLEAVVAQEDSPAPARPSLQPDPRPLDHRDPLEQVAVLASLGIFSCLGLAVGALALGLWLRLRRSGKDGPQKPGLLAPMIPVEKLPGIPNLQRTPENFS
# Description: Mouse IL11Rα (1 μg ml^−1 in PBS) was coated on a 96-well plate (overnight at 4° C.) and then blocked with blocking buffer (1% BSA in PBS containing 0.05% Tween20). Biotinylated mouse Il11 was prepared using Lightning-Link Rapid Biotin type A kit (Expedeon) according to the manufacturer's instructions. RhIL11 or rmIl11 was two-fold serially diluted in blocking buffer (starting at 5 μg ml^−1) and mixed with 0.01 μg ml^−1 biotinylated mouse IL11. The mixture of biotinylated mouse IL11 and either rhIL11 or rmIL11 was added into the coated plate and incubated for 1 h at RT. Color development was performed by adding Streptavidin-HRP (1:1000 in blocking buffer) and TMB chromogen solution (002023, ThermoFisher Scientific).
# infection colitis = conditions: 5 μg/kg, IP; cited from earlier work
# mouse livers = conditions: 500 μg/kg, IV prior to WI/Rp injury; cited from earlier work
molecule,measurement,setting,value
B1,clonogenic cells in intestinal crypts,[1],"cytotoxic exposure, protects clonogenic cells in intestinal crypts"
same,renoprotection,kidney,The authors conclude that IL11 is renoprotective based on pre-
same,"hepatocyte cell death, FACS (PI+ve cells)",[2]; 24 h,dose-dependent IL11-induced hepatocyte cell death
same,"ERK and JNK activation, concurrent with CASP3 cleavage",[2]; time course,late (>6 h) and sustained ERK and JNK activation
same,efficacy compared to prednisolone,active Crohn's disease,inferior as compared to prednisolone treatment.
same,recovery from chemotherapy and radiation-induced mucosal damage,small intestinal mucosa,Administration of rhIL11 (250 μg/kg) promotes recovery from
same,immune response of CD4+ve T-cells,[3],"CD4+ve T-cells and modulates, not represses, the immune"
same,competition with rmIL11 for binding to mIL11Rα1,mIL11Rα1,competed with rmIL11 for binding to mIL11Rα1
same,infection colitis,infection colitis,IP) ameliorates infection colitis and is cytoprotective in TLR2-
same,protection from WI/Rp injury,mouse livers,"injury protects mouse livers. In vitro, pre-treatment with rhIL11"

# — patent US11319368B2, “Treatment of hepatotoxicity with IL-11 antibody” (Singapore Health Services PTE LTD., priority 2019, dated 2022)
